T1: PUF4 RNA-binding domain (Saccharomyces cerevisiae, UniProt P25339 537-888)
T1 sequence: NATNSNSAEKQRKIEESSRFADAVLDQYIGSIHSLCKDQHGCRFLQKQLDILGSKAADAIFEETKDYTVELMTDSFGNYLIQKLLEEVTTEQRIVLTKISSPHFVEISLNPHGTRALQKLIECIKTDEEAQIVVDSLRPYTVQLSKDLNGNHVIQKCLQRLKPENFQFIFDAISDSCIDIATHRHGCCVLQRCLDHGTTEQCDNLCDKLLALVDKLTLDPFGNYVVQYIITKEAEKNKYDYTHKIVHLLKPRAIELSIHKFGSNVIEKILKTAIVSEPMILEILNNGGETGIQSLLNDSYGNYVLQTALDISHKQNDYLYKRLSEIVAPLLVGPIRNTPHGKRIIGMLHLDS


The binders below were run against T1, PUF4 RNA-binding domain (assay: Mg; RNA-MaP; 20 mM Na-HEPES pH 7.4, 30 mM KOAc, 0.75 mM MgCl2, 0.1% Tween-20, 5% glycerol, 0.1 mg/mL BSA, 2 mM DTT; 25 C; 0.0125-409.6 nM protein). Conditions: tags: N-His6-TEV cleaved; C-SNAP kept, Cy3B-labelled; label: tethered on chip by stalled RNA polymerase.

| Binder | Kd |
| --- | --- |
| UCUCUUUGUACCAUGAUCUCUU (ssRNA) [Ic_S1_P5E.1_K5.1_C5.1_H5.1_A5.1_[T5C]_[T6C]_F5.1_[T9G]_T5.1] | 8.03 nM |
| UCUCUUUGUAAACAACUCUCUU (ssRNA) [Ic_S1_P5E.1_K5.1_C5.1_H5.1_A5.1_[T5A]_[T6A]_[A7C]_F5.1_[T8A]_[T9A]_[A10C]_T5.1] | 88.4 nM |
| UCUCUUUGUAAAGCCAUCUCUU (ssRNA) [Ic_S1_P5E.1_K5.1_C5.1_H5.1_A5.1_[T5A]_[T6A]_[A7G]_F5.1_[T8C]_[T9C]_T5.1] | 1060 nM |
| UCUCUUUUCAUAUAUCUCUU (ssRNA) [Ib_S1_P3E.1_K3.1_C3.1_H3.1_[G2T]_[T3C]_A3.1_F3.1_T3.1] | > 2300 nM |
| UCUCUUUGUAACUUGUUCUCUU (ssRNA) [Ic_S1_P5E.1_K5.1_C5.1_H5.1_A5.1_[T5A]_[T6C]_[A7T]_F5.1_[T9G]_[A10T]_T5.1] | 49.4 nM |
| UCUCUUUGUAAGCUCCUCUCUU (ssRNA) [Ic_S1_P5E.1_K5.1_C5.1_H5.1_A5.1_[T5A]_[T6G]_[A7C]_F5.1_[T9C]_[A10C]_T5.1] | 1500 nM |
| UCUCUUUGUACUGCGCUCUCUU (ssRNA) [Ic_S1_P5E.1_K5.1_C5.1_H5.1_A5.1_[T5C]_[A7G]_F5.1_[T8C]_[T9G]_[A10C]_T5.1] | 1380 nM |
| UCUCUUUGUACUUCCAUCUCUU (ssRNA) [Ic_S1_P5E.1_K5.1_C5.1_H5.1_A5.1_[T5C]_[A7T]_F5.1_[T8C]_[T9C]_T5.1] | 666 nM |
| UCUCUUUGUAAUGUUUUCUCUU (ssRNA) [Ic_S1_P5E.1_K5.1_C5.1_H5.1_A5.1_[T5A]_[A7G]_F5.1_[A10T]_T5.1] | 118 nM |
| UCUCUUUGUAGUUCCCUCUCUU (ssRNA) [Ic_S1_P5E.1_K5.1_C5.1_H5.1_A5.1_[T5G]_[A7T]_F5.1_[T8C]_[T9C]_[A10C]_T5.1] | 1650 nM |
| UCUCUUUGUAUCUCUGUCUCUU (ssRNA) [Ic_S1_P5E.1_K5.1_C5.1_H5.1_A5.1_[T6C]_[A7T]_F5.1_[T8C]_[A10G]_T5.1] | 58.6 nM |
| UCUCUUUGUACCAAUCUCUCUU (ssRNA) [Ic_S1_P5E.1_K5.1_C5.1_H5.1_A5.1_[T5C]_[T6C]_F5.1_[T8A]_[A10C]_T5.1] | 119 nM |
| UCUCUUUGUAAUUACGUCUCUU (ssRNA) [Ic_S1_P5E.1_K5.1_C5.1_H5.1_A5.1_[T5A]_[A7T]_F5.1_[T8A]_[T9C]_[A10G]_T5.1] | 613 nM |
| UCUCUUUGUAUGGUUGUCUCUU (ssRNA) [Ic_S1_P5E.1_K5.1_C5.1_H5.1_A5.1_[T6G]_[A7G]_F5.1_[A10G]_T5.1] | 717 nM |
| UCUCUUUGUAUGUUCCUCUCUU (ssRNA) [Ic_S1_P5E.1_K5.1_C5.1_H5.1_A5.1_[T6G]_[A7T]_F5.1_[T9C]_[A10C]_T5.1] | 28.6 nM |
| UCUCUUUGUACCCGCGUCUCUU (ssRNA) [Ic_S1_P5E.1_K5.1_C5.1_H5.1_A5.1_[T5C]_[T6C]_[A7C]_F5.1_[T8G]_[T9C]_[A10G]_T5.1] | > 2300 nM |
| UCUCUUUGUAUAACAUUCUCUU (ssRNA) [Ic_S1_P5E.1_K5.1_C5.1_H5.1_A5.1_[T6A]_F5.1_[T8C]_[T9A]_[A10T]_T5.1] | 12.6 nM |
| UCUCUUUGUACAGUCCUCUCUU (ssRNA) [Ic_S1_P5E.1_K5.1_C5.1_H5.1_A5.1_[T5C]_[T6A]_[A7G]_F5.1_[T9C]_[A10C]_T5.1] | 13.5 nM |
| UCUCUUUGUAGCAUCAUCUCUU (ssRNA) [Ic_S1_P5E.1_K5.1_C5.1_H5.1_A5.1_[T5G]_[T6C]_F5.1_[T9C]_T5.1] | 287 nM |
| UCUCUUUGUAUUACCUUCUCUU (ssRNA) [Ic_S1_P5E.1_K5.1_C5.1_H5.1_A5.1_F5.1_[T8C]_[T9C]_[A10T]_T5.1] | 496 nM |
| UCUCUUUGUAUAGCUCUCUCUU (ssRNA) [Ic_S1_P5E.1_K5.1_C5.1_H5.1_A5.1_[T6A]_[A7G]_F5.1_[T8C]_[A10C]_T5.1] | 111 nM |
| UCUCUUUGUAUCGUACUCUCUU (ssRNA) [Ic_S1_P5E.1_K5.1_C5.1_H5.1_A5.1_[T6C]_[A7G]_F5.1_[T9A]_[A10C]_T5.1] | 13.9 nM |
| UCUCUUUGUAUAAUGGUCUCUU (ssRNA) [Ic_S1_P5E.1_K5.1_C5.1_H5.1_A5.1_[T6A]_F5.1_[T9G]_[A10G]_T5.1] | 8.53 nM |
| UCUCUUUGUACAAACUUCUCUU (ssRNA) [Ic_S1_P5E.1_K5.1_C5.1_H5.1_A5.1_[T5C]_[T6A]_F5.1_[T8A]_[T9C]_[A10T]_T5.1] | 93.1 nM |
| UCUCUUUGUACUACCCUCUCUU (ssRNA) [Ic_S1_P5E.1_K5.1_C5.1_H5.1_A5.1_[T5C]_F5.1_[T8C]_[T9C]_[A10C]_T5.1] | 656 nM |

| Binder | Kd |
| --- | --- |
| UCUCUUUUAAUAUAUCUCUU (ssRNA) [Ib_S1_P3E.1_K3.1_C3.1_H3.1_[G2T]_[T3A]_A3.1_F3.1_T3.1] | > 2300 nM |
| UCUCUUUGUACAAAAUUCUCUU (ssRNA) [Ic_S1_P5E.1_K5.1_C5.1_H5.1_A5.1_[T5C]_[T6A]_F5.1_[T8A]_[T9A]_[A10T]_T5.1] | 30.9 nM |
| UCUCUUUGUAAGUUAAUCUCUU (ssRNA) [Ic_S1_P5E.1_K5.1_C5.1_H5.1_A5.1_[T5A]_[T6G]_[A7T]_F5.1_[T9A]_T5.1] | 66.4 nM |
| UCUCUUUGUACCACCCUCUCUU (ssRNA) [Ic_S1_P5E.1_K5.1_C5.1_H5.1_A5.1_[T5C]_[T6C]_F5.1_[T8C]_[T9C]_[A10C]_T5.1] | 523 nM |
| UCUCUUUGUAUAAAAAUCUCUU (ssRNA) [Ic_S1_P5E.1_K5.1_C5.1_H5.1_A5.1_[T6A]_F5.1_[T8A]_[T9A]_T5.1] | 42 nM |
| UCUCUUUCUGUAUAUCUCUU (ssRNA) [Ib_S1_P3E.1_K3.1_C3.1_H3.1_[G2C]_[A4G]_A3.1_F3.1_T3.1] | 27.6 nM |
| UCUCUUUGUAUAACGUUCUCUU (ssRNA) [Ic_S1_P5E.1_K5.1_C5.1_H5.1_A5.1_[T6A]_F5.1_[T8C]_[T9G]_[A10T]_T5.1] | 34.4 nM |
| UCUCUUUGUACGGCUGUCUCUU (ssRNA) [Ic_S1_P5E.1_K5.1_C5.1_H5.1_A5.1_[T5C]_[T6G]_[A7G]_F5.1_[T8C]_[A10G]_T5.1] | 2200 nM |
| UCUCUUUGUAUACACUUCUCUU (ssRNA) [Ic_S1_P5E.1_K5.1_C5.1_H5.1_A5.1_[T6A]_[A7C]_F5.1_[T8A]_[T9C]_[A10T]_T5.1] | 69.2 nM |
| UCUCUUUGUACACGCCUCUCUU (ssRNA) [Ic_S1_P5E.1_K5.1_C5.1_H5.1_A5.1_[T5C]_[T6A]_[A7C]_F5.1_[T8G]_[T9C]_[A10C]_T5.1] | 394 nM |
| UCUCUUUGUACACCGAUCUCUU (ssRNA) [Ic_S1_P5E.1_K5.1_C5.1_H5.1_A5.1_[T5C]_[T6A]_[A7C]_F5.1_[T8C]_[T9G]_T5.1] | 425 nM |
| UCUCUUUGUACAUACGUCUCUU (ssRNA) [Ic_S1_P5E.1_K5.1_C5.1_H5.1_A5.1_[T5C]_[T6A]_[A7T]_F5.1_[T8A]_[T9C]_[A10G]_T5.1] | 11 nM |
| UCUCUUUGUAAUUUCGUCUCUU (ssRNA) [Ic_S1_P5E.1_K5.1_C5.1_H5.1_A5.1_[T5A]_[A7T]_F5.1_[T9C]_[A10G]_T5.1] | 92.7 nM |
| UCUCUUUGUAAAGCUCUCUCUU (ssRNA) [Ic_S1_P5E.1_K5.1_C5.1_H5.1_A5.1_[T5A]_[T6A]_[A7G]_F5.1_[T8C]_[A10C]_T5.1] | 1270 nM |
| UCUCUUUCAAUAUAUCUCUU (ssRNA) [Ib_S1_P3E.1_K3.1_C3.1_H3.1_[G2C]_[T3A]_A3.1_F3.1_T3.1] | > 2300 nM |
| UCUCUUUGUACUCUGUUCUCUU (ssRNA) [Ic_S1_P5E.1_K5.1_C5.1_H5.1_A5.1_[T5C]_[A7C]_F5.1_[T9G]_[A10T]_T5.1] | 21.5 nM |
| UCUCUUUGUAAUGCUUUCUCUU (ssRNA) [Ic_S1_P5E.1_K5.1_C5.1_H5.1_A5.1_[T5A]_[A7G]_F5.1_[T8C]_[A10T]_T5.1] | 181 nM |
| UCUCUUUGUAAGCACUUCUCUU (ssRNA) [Ic_S1_P5E.1_K5.1_C5.1_H5.1_A5.1_[T5A]_[T6G]_[A7C]_F5.1_[T8A]_[T9C]_[A10T]_T5.1] | > 2300 nM |
| UCUCUUUGUACGAAUUUCUCUU (ssRNA) [Ic_S1_P5E.1_K5.1_C5.1_H5.1_A5.1_[T5C]_[T6G]_F5.1_[T8A]_[A10T]_T5.1] | 693 nM |
| UCUCUUUGUAUAUAAUCUCUU (ssRNA) [Ia_S1_P4E.1_K4.1_C4.1_H4.1_A4.1_F4.1_[T8A]_T4.1] | 4.12 nM |
| UCUCUUUGUAUGUCCCUCUCUU (ssRNA) [Ic_S1_P5E.1_K5.1_C5.1_H5.1_A5.1_[T6G]_[A7T]_F5.1_[T8C]_[T9C]_[A10C]_T5.1] | 125 nM |
| UCUCUUUGUAACCAUGUCUCUU (ssRNA) [Ic_S1_P5E.1_K5.1_C5.1_H5.1_A5.1_[T5A]_[T6C]_[A7C]_F5.1_[T8A]_[A10G]_T5.1] | 481 nM |
| UCUCUUUGUAUGGUAUUCUCUU (ssRNA) [Ic_S1_P5E.1_K5.1_C5.1_H5.1_A5.1_[T6G]_[A7G]_F5.1_[T9A]_[A10T]_T5.1] | 13.3 nM |
| UCUCUUUCUCUAUAUCUCUU (ssRNA) [Ib_S1_P3E.1_K3.1_C3.1_H3.1_[G2C]_[A4C]_A3.1_F3.1_T3.1] | > 2300 nM |
| UCUCUUUGUACCCAUCUCUCUU (ssRNA) [Ic_S1_P5E.1_K5.1_C5.1_H5.1_A5.1_[T5C]_[T6C]_[A7C]_F5.1_[T8A]_[A10C]_T5.1] | 603 nM |

— publication PMC9352680, “A comprehensive thermodynamic model for RNA binding by the Saccharomyces cerevisiae Pumilio protein PUF4”
